Where two headings read alike, the source gives them in different places. Where no end group is shown, it is not given here.
Assays:
[1] = molecular target: T1, Bovine chymotrypsin (bovine, UniProt P00766 1-13; P00766 16-146; P00766 149-245); assay: enzyme inhibition, bovine chymotrypsin 5 nM
[2] = molecular target: T2, bovine pancreatic kallikrein (bovine); assay: enzyme inhibition, bovine pancreatic kallikrein 92.0 pM
T2 construct: also called kallikrein-sepharose

[3] = molecular target: T3, bovine trypsin (type III) (bovine, UniProt P00760 24-246); assay: enzyme inhibition, trypsin 48.5 pM
[4] = molecular target: T4, human plasmin (human, UniProt P00747 97-810, limits assumed); assay: enzyme inhibition, human plasmin 50 pM
[5] = molecular target: T5, human tissue kallikrein (human, UniProt P06870 25-262); assay: enzyme inhibition, human tissue kallikrein 0.35 nM, substrate PFR-AMC
[6] = molecular target: T3, bovine trypsin (type III); assay: enzyme inhibition, trypsin 48.5 pM; remark: listed apart in the source
[7] = molecular target: T6, human plasma kallikrein (human, UniProt P03952 20-638); assay: enzyme inhibition, human plasma kallikrein 2.5 nM
[8] = molecular target: tissue plasminogen activator (tPA), single chain form from human melanoma cell culture (human, UniProt P00750 36-562, limits assumed); assay: enzyme inhibition, tPA 7.5 nM, chromogenic substrate, A405
Experimental: Inhibition of tissue plasminogen activator (tPA) was also determined as follows: tPA (single chain form from human melanoma cell culture from Sigma Chemical Co, St Louis, Mo.) was pre-incubated with inhibitor for 2 hr at room temperature in 20 mM Tris buffer pH 7.2 containing 150 mM NaCl, and 0.02% sodium azide. […] Formation of p-Nitroaniline was determined from the A405 nm measured following incubation at 37 C for 2 hr.

[9] = molecular target: T7, Factor XIa (human, UniProt P03951 19-625); assay: enzyme inhibition, factor XIa 0.1 nM
T7 construct: also called FXIa; Human FXIa

[10] = molecular target: T4, human plasmin; assay: enzyme inhibition, human plasmin 50 pM; remark: listed apart in the source
[11] = molecular target: T8, Tissue Factor VIIa; assay: enzyme inhibition, method not described
T8 construct: also called TF/FVIIa

[12] = molecular target: T9, human factor Xa (human, UniProt P00742 41-179; P00742 235-488, limits assumed); assay: enzyme inhibition, factor Xa 0.87 nM
[13] = molecular target: T2, bovine pancreatic kallikrein; assay: enzyme inhibition, bovine pancreatic kallikrein 100 pM
[14] = molecular target: T6, human plasma kallikrein; assay: enzyme inhibition, human plasma kallikrein […] nM, substrate PFR-AMC
[15] = molecular target: T7, Factor XIa; assay: enzyme inhibition, FXIa 0.1 nM, substrate Boc-Glu(OBzl)-Ala-Arg-AMC
[16] = molecular target: T4, human plasmin; assay: enzyme inhibition, human plasmin 50 pM, substrate GPK-AMC
[17] = molecular target: T5, human tissue kallikrein; assay: enzyme inhibition, human tissue kallikrein 0.35 nM, substrate PFR-AMC; remark: listed apart in the source
[18] = molecular target: T4, human plasmin; assay: enzyme inhibition, human plasmin 50 pM; remark: listed apart in the source
[19] = molecular target: T1, Bovine chymotrypsin; assay: enzyme inhibition, chymotrypsin 5 nM, substrate AAPF-pNA
[20] = molecular target: T5, human tissue kallikrein; assay: enzyme inhibition, human tissue kallikrein
[21] = molecular target: T7, Factor XIa; assay: enzyme inhibition, factor XIa 0.1 nM, substrate Boc-Glu(OBzl)-Ala-Arg-AMC
[22] = molecular target: T9, human factor Xa; assay: enzyme inhibition, factor Xa 0.87 nM, substrate LGR-AMC
[23] = molecular target: T6, human plasma kallikrein; assay: enzyme inhibition, human plasma kallikrein […] nM
[24] = molecular target: T10, human neutrophil elastase (human, UniProt P08246 30-247, limits assumed); assay: enzyme inhibition, elastase
T10 sequence (looked up): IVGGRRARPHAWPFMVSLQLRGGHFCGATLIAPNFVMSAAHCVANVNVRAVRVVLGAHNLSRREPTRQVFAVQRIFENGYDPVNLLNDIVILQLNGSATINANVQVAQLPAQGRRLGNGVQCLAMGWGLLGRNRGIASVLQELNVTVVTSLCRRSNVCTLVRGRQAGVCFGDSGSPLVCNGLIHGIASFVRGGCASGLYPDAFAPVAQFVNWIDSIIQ
Experimental: (§1) Ki values were determined from Dixon plots of the form 1/V versus performed at two different substrate concentrations (Dixon et al., 1979).

[25] = molecular target: T5, human tissue kallikrein; assay: enzyme inhibition, human tissue kallikrein 0.35 nM, substrate PFR-AMC; remark: listed apart in the source
[26] = molecular target: T10, human neutrophil elastase; assay: enzyme inhibition (Dixon plot), human neutrophil elastase 19 nM, substrate AAPM-AMC
Experimental: as §1

[27] = molecular target: human urokinase (human, UniProt P00749 21-431, limits assumed); assay: enzyme inhibition, urokinase, substrate GGR-AMC
[28] = molecular target: T7, Factor XIa; assay: enzyme inhibition, Factor XIa 0.1 nM
[29] = molecular target: T4, human plasmin; assay: enzyme inhibition, human plasmin 50 pM, substrate GPK-AMC; remark: listed apart in the source
[30] = molecular target: T4, human plasmin; assay: enzyme inhibition, human plasmin 50 pM; remark: listed apart in the source
[31] = molecular target: T6, human plasma kallikrein; assay: enzyme inhibition, plasma kallikrein (apparent Ki)

T4 sequence (P00747 97-810 limits assumed): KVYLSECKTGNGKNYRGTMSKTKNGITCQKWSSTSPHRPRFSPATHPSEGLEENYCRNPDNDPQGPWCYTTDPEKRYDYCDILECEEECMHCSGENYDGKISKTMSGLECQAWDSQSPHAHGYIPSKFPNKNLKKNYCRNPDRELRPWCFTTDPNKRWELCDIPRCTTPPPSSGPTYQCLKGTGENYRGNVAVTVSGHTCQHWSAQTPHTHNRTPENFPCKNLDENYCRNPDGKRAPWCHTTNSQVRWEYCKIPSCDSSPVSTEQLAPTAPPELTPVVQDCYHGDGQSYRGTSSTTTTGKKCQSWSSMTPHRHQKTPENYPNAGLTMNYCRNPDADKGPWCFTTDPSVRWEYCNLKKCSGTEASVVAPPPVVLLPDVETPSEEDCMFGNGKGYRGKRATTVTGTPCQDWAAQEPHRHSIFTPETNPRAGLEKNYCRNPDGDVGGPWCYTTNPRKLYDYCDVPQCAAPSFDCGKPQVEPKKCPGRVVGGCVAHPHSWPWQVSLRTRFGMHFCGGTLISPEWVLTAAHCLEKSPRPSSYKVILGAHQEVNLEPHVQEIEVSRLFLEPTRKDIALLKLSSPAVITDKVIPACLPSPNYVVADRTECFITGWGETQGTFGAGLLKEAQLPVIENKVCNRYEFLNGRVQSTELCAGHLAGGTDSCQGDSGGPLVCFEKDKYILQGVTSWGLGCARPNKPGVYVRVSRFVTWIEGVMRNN
T5 sequence (P06870 25-262 limits assumed): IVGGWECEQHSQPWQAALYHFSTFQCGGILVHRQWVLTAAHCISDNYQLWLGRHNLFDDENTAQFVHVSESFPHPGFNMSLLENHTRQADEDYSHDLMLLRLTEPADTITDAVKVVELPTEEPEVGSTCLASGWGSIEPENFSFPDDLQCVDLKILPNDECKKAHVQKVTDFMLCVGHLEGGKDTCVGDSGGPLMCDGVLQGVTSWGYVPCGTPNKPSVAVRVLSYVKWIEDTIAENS
T6 sequence (P03952 20-638 limits assumed): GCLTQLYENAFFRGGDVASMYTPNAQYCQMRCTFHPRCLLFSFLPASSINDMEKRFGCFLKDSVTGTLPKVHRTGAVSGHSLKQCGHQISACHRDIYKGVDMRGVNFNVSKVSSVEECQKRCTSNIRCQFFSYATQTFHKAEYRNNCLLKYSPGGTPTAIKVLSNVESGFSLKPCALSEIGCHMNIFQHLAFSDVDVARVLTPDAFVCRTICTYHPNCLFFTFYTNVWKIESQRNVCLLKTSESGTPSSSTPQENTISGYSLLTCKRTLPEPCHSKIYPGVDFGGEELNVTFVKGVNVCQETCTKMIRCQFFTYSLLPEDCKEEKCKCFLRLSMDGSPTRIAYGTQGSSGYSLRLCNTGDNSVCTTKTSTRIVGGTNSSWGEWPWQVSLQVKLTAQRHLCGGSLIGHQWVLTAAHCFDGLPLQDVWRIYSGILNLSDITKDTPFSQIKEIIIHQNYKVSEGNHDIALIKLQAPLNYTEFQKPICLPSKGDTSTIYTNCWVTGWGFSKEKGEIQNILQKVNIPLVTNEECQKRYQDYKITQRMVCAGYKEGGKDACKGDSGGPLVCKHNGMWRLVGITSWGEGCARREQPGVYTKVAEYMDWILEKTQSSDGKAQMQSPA
T9 sequence (P00742 41-179 limits assumed, chain 1 of 2): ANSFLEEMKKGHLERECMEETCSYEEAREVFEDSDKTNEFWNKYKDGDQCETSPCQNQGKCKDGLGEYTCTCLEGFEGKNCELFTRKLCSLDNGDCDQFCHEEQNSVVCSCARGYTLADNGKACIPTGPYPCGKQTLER
T9 sequence (P00742 235-488 limits assumed, chain 2 of 2): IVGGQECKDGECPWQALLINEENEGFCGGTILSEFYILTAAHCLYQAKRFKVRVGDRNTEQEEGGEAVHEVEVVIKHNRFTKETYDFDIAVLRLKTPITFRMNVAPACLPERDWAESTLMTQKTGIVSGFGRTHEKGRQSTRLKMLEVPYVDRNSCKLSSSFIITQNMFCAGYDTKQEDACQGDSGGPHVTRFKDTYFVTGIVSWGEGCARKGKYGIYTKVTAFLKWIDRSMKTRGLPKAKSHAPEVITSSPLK
T3 sequence (P00760 24-246): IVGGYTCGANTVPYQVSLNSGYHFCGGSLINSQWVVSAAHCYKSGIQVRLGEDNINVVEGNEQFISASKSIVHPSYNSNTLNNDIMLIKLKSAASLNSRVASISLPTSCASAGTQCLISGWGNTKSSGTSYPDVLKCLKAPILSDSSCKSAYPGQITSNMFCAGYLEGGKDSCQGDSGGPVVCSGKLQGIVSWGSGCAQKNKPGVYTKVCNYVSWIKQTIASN
tissue plasminogen activator (tPA), single chain form from human melanoma cell culture, sequence (P00750 36-562 limits assumed): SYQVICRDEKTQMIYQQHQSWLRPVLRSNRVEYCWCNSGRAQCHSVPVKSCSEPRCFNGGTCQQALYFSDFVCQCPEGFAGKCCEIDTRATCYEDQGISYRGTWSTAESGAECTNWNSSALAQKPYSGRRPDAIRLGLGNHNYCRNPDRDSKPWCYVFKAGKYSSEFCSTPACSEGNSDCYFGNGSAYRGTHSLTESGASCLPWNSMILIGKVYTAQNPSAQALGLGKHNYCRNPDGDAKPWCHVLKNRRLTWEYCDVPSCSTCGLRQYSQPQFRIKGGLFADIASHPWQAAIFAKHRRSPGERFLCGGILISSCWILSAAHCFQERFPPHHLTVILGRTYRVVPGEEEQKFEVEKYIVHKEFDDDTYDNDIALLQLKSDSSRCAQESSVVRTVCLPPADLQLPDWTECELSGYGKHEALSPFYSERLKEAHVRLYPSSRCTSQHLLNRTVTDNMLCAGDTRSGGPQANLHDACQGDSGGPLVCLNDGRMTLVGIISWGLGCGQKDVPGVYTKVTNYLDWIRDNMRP

B1: synthetic placental bikunin (7-64), first preparation of Example 2 (other)
chain: IHDFCLVSKVVGRCRASMPRWWYNVTDGSCQLFVYGGCDGNSNNYLTKEECLKKCATV
notes: also called placental bikunin fragment (7-64); KID1
Q: With B1 as the binder, how does the Ki [1] read?
A: The Ki was 0.6 nM.

Q: And the Ki [2]?
A: Its Ki is 0.4 nM.

B2: native human placental bikunin isolated from placenta (other)
chain: ADRERSIHDFCLVSKVVGRCRASMPRWWYNVTDGSCQLFVYGGCDGNSNNYLTKEECLKKCATVTENATGDLATSRNAADSSVPSAPRRQDSEDHSSDMFNYEEYCTANAVTGPCRASFPRWYFDVERNSCNNFIYGGCRGNKNSYRSEEACMLRCFRQQENPPLPLGSK
modifications: Asn 30 silent in sequencing, likely glycosylated
notes: Soluble protein purified from human placenta; A minor species started at residue 6; also called native Placental Bikunin (1-179)
Q: For B2, which Ki [3] is on record?
A: The Ki was 0.13 nM.

Q: And the Ki [4]?
A: The Ki was 1.9 nM.

B3: placental bikunin (1-170) derived from a baculovirus/Sf9 expression system (other)
chain: B2 chain
notes: Both Kunitz domains, truncated before the transmembrane segment; N-terminus ADRER confirmed, so the signal peptide was removed; also called Recombinant Bikunin; recombinant placental bikunin (1-170)
Q: For B3, which Ki [5] is on record?
A: The Ki was 0.04 nM.

Q: What about the Ki [6] of the same binder?
A: The Ki was 0.064 nM.

Q: And the Ki [7]?
A: The Ki was 0.18 nM.

Q: And the Ki [8]?
A: Its Ki is under 60 nM.

Q: What about the Ki [9] of the same binder?
A: The Ki was 3 nM.

Q: What about the Ki [10] of the same binder?
A: The Ki was 0.23 nM.

Q: And the Ki [11]?
A: Its Ki is 800 nM.

Q: What about the Ki [12] of the same binder?
A: Its Ki is 180 nM.

Q: What about the Ki [13] of the same binder?
A: Its Ki is 0.12 nM.

B4: CHO expressed placental bikunin (1-170) (other)
chain: B2 chain
modifications: N-linked carbohydrate at Asn-30 and Asn-61 (so in the source)
notes: Glycosylated isoforms of 21-38 kDa; also called CHO Bikunin (1-170)
Q: What does the source list for B4?
A: Ki [14]: 0.5 nM; Ki [15]: 1.9 nM; Ki [16]: 0.2 nM; Ki [17]: 0.3 nM

B5: synthetic placental bikunin (102-159) (other)
chain: YEEYCTANAVTGPCRASFPRWYFDVERNSCNNFIYGGCRGNKNSYRSEEACMLRCFRQ
modifications: disulfide (positions not given here)
notes: also called KID2
Q: What does the source list for B5?
A: Ki [18]: 1.8 nM; Ki [19]: 0.24 nM; Ki [20]: 0.13 nM; Ki [1]: 0.2 nM; Ki [21]: 15 nM; Ki [22]: 274 nM; Ki [23]: 0.7 nM; Ki [24]: 323 nM; Ki [25]: 0.13 nM; Ki [26]: 323 nM; Ki [27]: 11000 nM; Ki [28]: 15 nM; Ki [29]: 1.8 nM; Ki [30]: 1.8 nM

B6: placental bikunin (102-159) expressed in yeast strain SC101 (recombinant 2.4) and purified (other)
chain: B5 chain
notes: also called placental bikunin C-terminal domain
Q: Which Ki [31] does the source give for B6 here?
A: The Ki was 0.35 nM.

Reference: patent US20070086956A1 (Bayer, published 2007)
